Tests used:
[1] = target: T1, Histidine-tagged DLL3 antigen (DLL3-His) (Homo sapiens, UniProt Q9NYJ7); assay: Pairwise epitope binning, Carterra array SPR; conditions: pairwise competition for binding to DLL3-His
T1 sequence (Q9NYJ7 27-479): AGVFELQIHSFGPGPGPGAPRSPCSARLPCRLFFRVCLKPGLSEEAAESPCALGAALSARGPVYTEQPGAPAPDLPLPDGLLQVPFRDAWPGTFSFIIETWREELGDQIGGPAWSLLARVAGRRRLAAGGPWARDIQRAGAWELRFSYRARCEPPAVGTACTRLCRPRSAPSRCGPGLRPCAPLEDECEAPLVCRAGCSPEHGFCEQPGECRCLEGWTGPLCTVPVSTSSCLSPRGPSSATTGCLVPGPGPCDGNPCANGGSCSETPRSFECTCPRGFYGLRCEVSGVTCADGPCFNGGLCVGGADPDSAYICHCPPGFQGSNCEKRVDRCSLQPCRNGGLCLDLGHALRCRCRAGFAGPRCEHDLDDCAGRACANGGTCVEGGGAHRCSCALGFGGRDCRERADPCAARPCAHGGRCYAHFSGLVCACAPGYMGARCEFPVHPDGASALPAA
Protocol: The panel of purified anti-DLL3 monoclonal antibodies and the reference monoclonal antibody were subjected to pairwise epitope binning on a Carterra® array surface plasmon resonance (SPR) assay platform (Carterra® Inc., Salt Lake City UT) where each monoclonal antibody was tested for the capture of Histidine-tagged DLL3 antigen (DLL3-His), and also for competing with every other antibody in the panel for the binding to DLL3-His. The antibodies were immobilized on a HC200M chip (ligand) through standard amine coupling techniques by the print array method. Then in each cycle antigen was injected across the entire array followed by a single antibody (analyte). At the end of each cycle the surface was regenerated to remove antigen and analyte before a new cycle started. As shown in the Table below, three different bins were identified with the panel with 7-I1-B and 2-C8-A mapping to bin 2 while 6-G23-F was in bin 3 and 10-O18-A was in bin 1.

DLL3 [2] = target: T2, DLL3 (Homo sapiens, UniProt Q9NYJ7); assay: Selectivity of binding among delta-like ligands (FIG. 11)
T2 sequence (Q9NYJ7 27-618): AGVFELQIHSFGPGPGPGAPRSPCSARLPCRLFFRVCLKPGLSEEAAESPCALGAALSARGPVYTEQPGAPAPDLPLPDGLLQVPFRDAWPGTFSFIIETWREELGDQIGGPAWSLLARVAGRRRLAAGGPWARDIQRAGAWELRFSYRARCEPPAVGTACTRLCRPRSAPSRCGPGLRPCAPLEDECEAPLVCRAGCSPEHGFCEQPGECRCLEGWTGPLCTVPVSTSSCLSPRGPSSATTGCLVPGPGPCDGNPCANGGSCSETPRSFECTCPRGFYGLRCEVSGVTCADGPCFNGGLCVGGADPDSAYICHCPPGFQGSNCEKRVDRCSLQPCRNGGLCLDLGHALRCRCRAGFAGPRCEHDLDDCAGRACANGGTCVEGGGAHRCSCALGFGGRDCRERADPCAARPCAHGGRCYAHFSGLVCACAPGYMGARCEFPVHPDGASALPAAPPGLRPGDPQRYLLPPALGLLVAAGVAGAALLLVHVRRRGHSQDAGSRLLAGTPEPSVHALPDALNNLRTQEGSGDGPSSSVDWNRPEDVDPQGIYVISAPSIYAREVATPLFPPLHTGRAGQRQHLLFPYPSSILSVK

DLL1 = target: T3, DLL1 (Homo sapiens, UniProt O00548); assay: as above
T3 sequence (O00548 18-723): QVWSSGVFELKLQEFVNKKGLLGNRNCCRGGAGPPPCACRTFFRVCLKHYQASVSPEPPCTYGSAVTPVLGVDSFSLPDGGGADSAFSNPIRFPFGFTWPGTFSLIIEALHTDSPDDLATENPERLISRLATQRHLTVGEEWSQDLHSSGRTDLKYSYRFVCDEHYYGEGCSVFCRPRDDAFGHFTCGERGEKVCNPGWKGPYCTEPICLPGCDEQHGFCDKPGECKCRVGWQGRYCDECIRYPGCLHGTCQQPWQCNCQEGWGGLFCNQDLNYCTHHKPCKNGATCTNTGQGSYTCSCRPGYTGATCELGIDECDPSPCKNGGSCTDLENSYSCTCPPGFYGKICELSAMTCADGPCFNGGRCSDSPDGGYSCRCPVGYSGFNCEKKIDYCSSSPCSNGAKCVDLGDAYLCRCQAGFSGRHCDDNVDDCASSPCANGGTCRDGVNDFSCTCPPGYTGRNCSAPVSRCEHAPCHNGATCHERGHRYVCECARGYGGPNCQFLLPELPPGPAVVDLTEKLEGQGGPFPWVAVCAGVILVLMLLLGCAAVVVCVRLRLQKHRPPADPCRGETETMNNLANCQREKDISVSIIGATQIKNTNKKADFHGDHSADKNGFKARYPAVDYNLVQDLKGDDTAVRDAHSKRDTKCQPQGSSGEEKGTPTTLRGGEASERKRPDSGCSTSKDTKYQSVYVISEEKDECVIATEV

DLL4 = DLL4 (Homo sapiens, UniProt Q9NR61); assay: as above
293 (negative control) = assay: Flow cytometry binding to 293 cells (negative control); conditions: 10 μg/ml
Protocol: The four monoclonal antibodies (6-G23-F, 2-C8-A, 7-I1-B and 10-O18-A) were tested for their ability to bind to mouse and cynomolgous DLL3 as well as endogenous human DLL3 by flow cytometry. For this purpose, HEK293 cells were transfected with plasmid DNA encoding full-length human, mouse or cynomolgous DLL3 and used in the experiment. Briefly […] transfected HEK293 cells or NCI-H82 primary cells were added in FACS buffer PBS 0.5% BSA to the wells of a 96 well U bottom plate and purified monoclonal added to 10 μg/ml. After 30 minutes incubation at 4° C. the cells were washed 3 times in FACS buffer and incubated with a PE labelled F(ab)2 anti-mouse IgG H and L 2nd stage. After another 30 minutes incubation at 4° C. the cells were washed three times in FACS buffer and analyzed on the flow cytometer. Data are presented at the ratio of the Mean Fluorescent Intensity for the monoclonal divided by the background staining with the 2nd stage.

DLL3 [3] = target: T2, DLL3; assay: 4/37 internalization assay (staining at 4° C. versus 37° C., flow cytometry); type: cell-based; design: endogenous in cells; host or cells: NCI-H82; conditions: NCI-H82 cells, compared with reference monoclonal antibody SC16
Protocol: The four monoclonal antibodies (6-G23-F, 2-C8-A, 7-I1-B and 10-O18-A) were compared for their ability to internalize DLL3 by comparing the staining at 4° C. with that at 37° C. A reference monoclonal antibody SC16, which is known to internalize via DLL3 and to have ADC activity, and which was previously reported in the literature, was used as the positive control for internalization. NCI-H82 cells in exponential growth were harvested with trypsin/EDTA, washed once in RPMI containing 10% fetal calf serum (FCS) and resuspended in DMEM supplemented with 10% FCS at 2×10^7 cells/ml. 100 μl (2×10^6 cells) were added to U bottom 96 well plates. The test monoclonal antibodies (6-G23-F, 2-C8-A, 7-I1-B or 10-O18-A) or the reference monoclonal antibody were added to separate wells to give a final concentration of 10 μg/ml in duplicate plates. […] After 30 minutes incubation at 4° C. the cells were washed three times in cold wash buffer and either fixed in PBS 0.5% paraformaldehyde and analyzed by flow cytometry within 48 hours. The mean fluorescent intensity (MFI) ratios calculated by dividing the MFI obtained from the control plate (which incubated with the antibodies at 4° C.) by the corresponding MFI obtained from the experimental plate (which incubated with the antibodies at 37° C.) was taken as a relative measure of internalization. […]

Chain of DLL4 (Q9NR61 27-685): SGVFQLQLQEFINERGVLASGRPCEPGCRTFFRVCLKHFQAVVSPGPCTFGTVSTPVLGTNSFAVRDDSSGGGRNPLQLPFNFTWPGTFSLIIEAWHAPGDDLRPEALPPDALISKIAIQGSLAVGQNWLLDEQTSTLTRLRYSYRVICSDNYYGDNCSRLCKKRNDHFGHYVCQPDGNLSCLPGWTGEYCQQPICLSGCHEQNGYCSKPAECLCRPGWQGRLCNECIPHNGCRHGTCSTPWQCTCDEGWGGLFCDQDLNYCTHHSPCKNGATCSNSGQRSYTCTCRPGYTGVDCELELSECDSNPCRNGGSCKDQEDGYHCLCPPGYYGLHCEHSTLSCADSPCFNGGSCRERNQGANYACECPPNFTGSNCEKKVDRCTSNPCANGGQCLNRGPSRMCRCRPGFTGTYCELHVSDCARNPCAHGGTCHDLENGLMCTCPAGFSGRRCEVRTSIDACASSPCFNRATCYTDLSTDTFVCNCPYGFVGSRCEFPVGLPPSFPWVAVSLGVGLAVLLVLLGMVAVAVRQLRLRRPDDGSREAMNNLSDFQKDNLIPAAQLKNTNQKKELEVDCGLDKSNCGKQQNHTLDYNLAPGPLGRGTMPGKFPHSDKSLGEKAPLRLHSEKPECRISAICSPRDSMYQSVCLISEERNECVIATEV

B1: 2-C8-A: anti-DLL3 monoclonal antibody, VH SEQ ID NO: 12 and VL SEQ ID NO: 17 (antibody, V domains shown)
VH: EVQLVESGGGLVQPGGSQRLSCAASGFTFSSYWMNWVRQAPGKGLEWVANIKEDGSEKYYVDSVKGRFTISRDNAKNSLYLQMNSLRAEDTAVYYCARDPGWAPFDYWGQGTLVTVSS
VL: DIQMSQSPSSLSASVGDRVTITCRASQGISNYLAWFQQKPGKAPKSLIYAASSLQSGVPSKFSGSGSGTDFTLAISSLQPEDFATYYCQQYNSFPYTFGQGTTLEIK
[1]
  Epitope Bin: 2
DLL3 [2]
  binding to DLL3: selectively bind DLL3
DLL1
  binding to DLL1: not DLL1 or DLL4
DLL4
  binding to DLL4: not DLL1 or DLL4
293 (negative control)
  293 (negative control) (ratio of MFI for the monoclonal divided by background staining with the 2nd stage): 0.59
DLL3 [3]
  ability to internalize DLL3: able to internalize on binding DLL3 but not to the extent of the reference monoclonal antibody
